Here are results for three molecules from PMC6711944, “Structural insights into the species preference of the influenza B virus NS1 protein in ISG15 binding” (Protein & Cell, 2018).

For series [1], the target named is T1, NS1B-NTR (1-103), N-terminal region of the influenza B virus NS1 protein (influenza B virus, UniProt P03502 1-103).
T1 construct: not shown: GST, N-terminal, cleaved
T1 sequence: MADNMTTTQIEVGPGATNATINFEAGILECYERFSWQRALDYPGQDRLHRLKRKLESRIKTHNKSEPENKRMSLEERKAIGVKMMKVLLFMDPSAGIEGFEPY
As to the kind of experiment: ITC; about 0.5 mM ISG15 injected into 250 ul of 0.05 mM NS1B-NTR in the cell, 20 aliquots of 2 ul; 25 °C; 10 mM HEPES-sodium, 500 mM NaCl, pH 7.2; MicroCal iTC200; 'one set of sites' fitting model. As to conditions: both partners purified. On the technique in general: ITC needs no label: the signal is the heat of the interaction.

In a further series the target is T2, murine ISG15 (murine, UniProt Q64339 1-155).
T2 construct: also called mISG15
Description: ITC; isothermal titration calorimetry of NS1B-NTR and ISG15 proteins; which was titrated and the conditions are not told in the text shown. As to conditions: both partners purified.

A further series concerns the target T3, bovine ISG15 (bovine, UniProt O02741 1-154).
T3 construct: also called bISG15
The description is as above. As to conditions: both partners purified.

In another series the target is T4, hISG15-L10A (human, UniProt P05161 1-157, L10A).
T4 construct: Mutant of m2
The description is as above. As to conditions: both partners purified.

A further series concerns the target T5, canine ISG15 (canine, UniProt A0A8I3P342 1-174).
T5 construct: also called cISG15
Described as above. The note with it: both partners purified.

For series [2], the target named is T6, hISG15 with the first two linker residues (Asp76, Lys77) converted to alanine (human, UniProt P05161 1-157, Asp76 to alanine | Lys77 to alanine).
T6 construct: also called the mutated hISG15
The description is as above. As to conditions: both partners purified.

A further series deals with T7, human ISG15 (human, UniProt P05161 1-157).
T7 construct: also called hISG15
The series is described as above. The note with it: both partners purified.

Series [3] concerns the molecule itself. Description: crystal structure; crystal structures of NS1B-NTR in complex with mISG15, cISG15 or bISG15.

T5 sequence (A0A8I3P342 entry or part of it): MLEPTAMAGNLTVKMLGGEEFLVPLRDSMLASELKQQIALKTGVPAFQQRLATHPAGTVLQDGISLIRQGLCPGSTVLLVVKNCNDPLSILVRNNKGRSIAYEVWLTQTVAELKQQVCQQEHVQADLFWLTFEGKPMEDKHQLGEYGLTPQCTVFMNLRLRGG
T7 sequence (P05161 1-157): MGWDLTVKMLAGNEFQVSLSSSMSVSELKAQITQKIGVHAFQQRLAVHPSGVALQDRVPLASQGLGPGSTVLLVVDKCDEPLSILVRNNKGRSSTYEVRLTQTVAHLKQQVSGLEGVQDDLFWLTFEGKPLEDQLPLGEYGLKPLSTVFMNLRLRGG
T4 sequence (P05161 1-157 L10A): as the sequence (P05161 1-157) above, with L10A counted along it
T6 sequence (P05161 other isoform, or with tags, fused parts or gaps with the stated changes): as the sequence (P05161 1-157) above, with D76A, K77A counted along it

B1: mISG15-Q74A-N75A (natural protein)
chain: MAWDLKVKMLGGNDFLVSVTNSMTVSELKKQIAQKIGVPAFQQRLAHQTAVLQDGLTLSSLGLGPSSTVMLVVAASSEPLSILVRNERGHSNIYEVFLTQTVDTLKKKVSQREQVHEDQFWLSFEGRPMEDKELLGEYGLKPQCTVIKHLRLRGG
notes: not shown: GST, N-terminal, cleaved
In general, Kd refers to the constant that tells how readily two partners part at equilibrium. Low readings indicate higher affinity, high ones lower affinity. On to B1, for which the Kd in series [1] was determined as 6 µM.

B2: bISG15-Q76A-N77A (natural protein)
chain: MGGDLTVKMLGGQEILVPLRDSMTVSELKQFIAQKINVPAFQQRLAHLDSREVLQEGVPLVLQGLRAGSTVLLVVAASISILVRNDKGRSSPYEVQLKQTVAELKQQVCQKERVQADQFWLSFEGRPMDDEHPLEEYGLMKGCTVFMNLRLRGG
notes: as for B1
In series [1], B2 showed a Kd of 10 µM.

B3: NS1B-NTR, containing the 103 N-terminal residues of NS1B (influenza B virus NS1 protein) (domain or fragment)
chain: MADNMTTTQIEVGPGATNATINFEAGILECYERFSWQRALDYPGQDRLHRLKRKLESRIKTHNKSEPENKRMSLEERKAIGVKMMKVLLFMDPSAGIEGFEPY
notes: the same region as in the cited hISG15/NS1B-NTR structure PDB 3RT3
As a reminder, the stoichiometry N is a count of units in the complex or per binding partner. Regarding B3, the Kd in the series with murine ISG15 came to 13 µM; with bovine ISG15 it was 12 µM; with hISG15-L10A, 17 µM; in the series with canine ISG15, 34 µM; in series [2], 5 µM; with human ISG15, 280 nM. Also, the “stoichiometry N” value amounted to 1 with murine ISG15; 1 with bovine ISG15; 1 with canine ISG15; 1 in the series with human ISG15; 2 in series [3].
